Drawing on PMC4592971, this text covers median donor fluorescence lifetime (FLIM) for one substance.

In the assay the target is full length RhoA (Q63L) as it stands in the constitutively GTP-loaded DORA-RhoA biosensor (UniProt P61586). The assay can be described thus: FRET or BRET; FRET inside the single-chain DORA-RhoA biosensor (CFP on RhoA, YFP on the PKN1 domain) in living HeLa cells; single cell emission spectra and frequency domain FLIM of the donor (75.1 MHz).
Sequence of UniProt P61586 (P61586 whole entry Q63L, the tested form may be a part): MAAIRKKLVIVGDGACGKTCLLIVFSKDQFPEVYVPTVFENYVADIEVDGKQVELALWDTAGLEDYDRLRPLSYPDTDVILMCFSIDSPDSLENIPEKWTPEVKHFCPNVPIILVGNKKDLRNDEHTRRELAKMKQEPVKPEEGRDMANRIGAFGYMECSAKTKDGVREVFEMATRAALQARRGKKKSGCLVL

Substance “Rho binding domain of PKN1 (cpPKN) as it stands in the DORA-RhoA biosensor (domain or fragment)” had a median donor fluorescence lifetime (FLIM) of 2.4 ns.
